Assay results taken from the supplement of paper PMC7125110.
± gives the standard error. Fewer inactive variants are shown than the library holds.

B1: glmS ribozyme (parent)
chain: AUAAAAGCGCCAGAACUACAGAAAUGUAGUUGACGAGGAGGAGGUUUAUCGAAUUUUCGGCGGAUGCCUCCAAA

What was measured:
Conditions in all cases: with glucosamine-6-phosphate
glucosamine-6-phosphate [1] = variants of: B1; assay: self-cleavage kobs at 40 uM GlcN6P; higher = faster cleavage; RNA array
Procedure, shortened: (§1)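 Tiles of sequenced MiSeq chips were imaged over ~14 h at 37 °C. On them, barcoded ribozyme variants had been transcribed in situ by E. coli RNA polymerase and were tracked via a hybridised Cy3 probe while glucosamine-6-phosphate (40 μM to 10 mM) in HEPES/KCl/Mg(OAc)2 buffer flowed in. Per-tile medians, normalised to baseline and to non-cleaving reference variants, were fit to one- or two-exponential decays for kobs, and weighted Michaelis–Menten fits gave kcat and KM.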

glucosamine-6-phosphate [2] = variants of: B1; assay: self-cleavage kobs at 10000 uM GlcN6P; higher = faster cleavage; RNA array
Procedure, shortened: as §1

glucosamine-6-phosphate [3] = variants of: B1; assay: self-cleavage kobs at 640 uM GlcN6P; higher = faster cleavage; RNA array
Procedure, shortened: as §1

glucosamine-6-phosphate [4] = variants of: B1; assay: self-cleavage kobs at 2500 uM GlcN6P; higher = faster cleavage; RNA array
Procedure, shortened: as §1

glucosamine-6-phosphate [5] = variants of: B1; assay: self-cleavage kobs at 160 uM GlcN6P; higher = faster cleavage; RNA array
Procedure, shortened: as §1

Variant | self-cleavage kobs at 40 uM GlcN6P (glucosamine-6-phosphate [1]) [s⁻¹] | self-cleavage kobs at 10000 uM GlcN6P (glucosamine-6-phosphate [2]) [s⁻¹] | self-cleavage kobs at 640 uM GlcN6P (glucosamine-6-phosphate [3]) [s⁻¹] | self-cleavage kobs at 2500 uM GlcN6P (glucosamine-6-phosphate [4]) [s⁻¹] | self-cleavage kobs at 160 uM GlcN6P (glucosamine-6-phosphate [5]) [s⁻¹]
A12U A42G U46G G63U | < 1e-05 | < 1e-05 |  |  | 
A12G G37C | < 1e-05 | < 1e-05 | < 1e-05 |  | 
A12C A42G C70A | < 1e-05 | 2.91e-05 ± 1.2e-05 |  |  | 
G13C A33U A39G U47C C61U | < 1e-05 |  |  |  | 
G13C G43A G63A A64G | < 1e-05 | < 1e-05 |  |  | 
A12G C16U C34A A39U G60A U69G | < 1e-05 |  |  |  | 
A12U G41U U54A | 4.72e-05 ± 1.9e-05 | 0.000602 ± 0.00016 |  |  | 
C11U U65A | < 1e-05 |  | 0.000121 ± 3.6e-05 | 9.22e-05 ± 2e-05 | 
A12U G40A U45C | 6.12e-05 ± 2e-05 | 0.00175 ± 0.0003 |  |  | 
C11G A39U G60A | < 1e-05 |  | < 1e-05 | < 1e-05 | < 1e-05
G13A U49A A64G | < 1e-05 |  | < 1e-05 |  | < 1e-05
A12U G40U C61A | < 1e-05 | < 1e-05 |  |  | 
A12C A14C G60A A64C | < 1e-05 |  |  |  | 
A12C A36C U54G | < 1e-05 |  |  |  | 
A12C A33C C71G | < 1e-05 | < 1e-05 |  |  | 
A12U G32C G41U C61A | < 1e-05 |  |  |  | 
A12U G29C | 0.00079 ± 0.00011 | 0.0212 ± 0.0041 | 0.00446 ± 0.00073 | 0.00717 ± 0.0026 | 0.000653 ± 0.00013
A12U G29A | 0.00084 ± 0.00025 | 0.041 ± 0.012 | 0.00253 ± 0.00054 | 0.00409 ± 0.0011 | 0.000905 ± 0.0002
A12U A52G | 8.7e-05 ± 1.3e-05 | 0.00785 ± 0.0012 | 0.000717 ± 0.00014 | 0.00267 ± 0.00049 | 0.000171 ± 6.4e-05
C11A C68A | < 1e-05 |  |  |  | 
C11U A33C A52G C67A | < 1e-05 |  |  |  | 
C11U A52U G60C | < 1e-05 | < 1e-05 | < 1e-05 |  | 
A12U C70G | 0.000124 ± 1.2e-05 | 0.001 ± 0.00029 | 0.000558 ± 0.00013 |  | 0.000175 ± 2.3e-05
A12U G38C A52G C58A | < 1e-05 |  |  |  | 

Variant | self-cleavage kobs at 40 uM GlcN6P (glucosamine-6-phosphate [1]) [s⁻¹] | self-cleavage kobs at 10000 uM GlcN6P (glucosamine-6-phosphate [2]) [s⁻¹] | self-cleavage kobs at 640 uM GlcN6P (glucosamine-6-phosphate [3]) [s⁻¹] | self-cleavage kobs at 2500 uM GlcN6P (glucosamine-6-phosphate [4]) [s⁻¹] | self-cleavage kobs at 160 uM GlcN6P (glucosamine-6-phosphate [5]) [s⁻¹]
C11A U69G | 5.85e-05 ± 9.2e-06 | 5.17e-05 ± 1.1e-05 | 0.000166 ± 4.5e-05 |  | 0.000398 ± 0.00018
C11U A48G A53G | < 1e-05 | < 1e-05 |  |  | 
C11A U49C | < 1e-05 | < 1e-05 |  | < 1e-05 | < 1e-05
A12U G41U A42G | 0.000102 ± 1.6e-05 | 0.00149 ± 0.0003 |  |  | 
C11G U54C C70U | < 1e-05 | < 1e-05 |  |  | 
G13C C16A G37U | < 1e-05 | < 1e-05 |  |  | 
A12C G43U C71A | < 1e-05 |  |  |  | 
A12C U54A | 0.000707 ± 7e-05 | 0.0301 ± 0.0049 | 0.0159 ± 0.0035 | 0.00841 ± 0.0015 | 0.00199 ± 0.00034
A12U A14U G32U | < 1e-05 | 8.48e-05 ± 2e-05 |  |  | 
C11G A14C | < 1e-05 |  |  |  | < 1e-05
C11G A15U C34G A39U A48G | < 1e-05 |  | < 1e-05 | < 1e-05 | 
C11U A15C A48U G60A | < 1e-05 | < 1e-05 |  |  | 
C11G G35C | < 1e-05 | < 1e-05 | < 1e-05 | < 1e-05 | < 1e-05
G13C G44C | < 1e-05 | < 1e-05 | < 1e-05 | < 1e-05 | < 1e-05
G13A G62U C70U | < 1e-05 | < 1e-05 |  |  | 
C11G U46A | < 1e-05 | < 1e-05 |  | < 1e-05 | < 1e-05
G13C C50G G66C | 3.47e-05 ± 1.6e-05 |  |  |  | 
A12U A36G | < 1e-05 |  |  |  | < 1e-05
A12U A39U | 0.00122 ± 0.00014 | 0.0541 ± 0.013 | 0.0129 ± 0.0047 | 0.00925 ± 0.0022 | 0.0029 ± 0.00074
C11G U54C | < 1e-05 |  |  |  | 
G13A A39U C61U | < 1e-05 |  |  | < 1e-05 | 
A12C G40A | 0.000112 ± 2.1e-05 | 0.00569 ± 0.0013 | 0.000633 ± 0.00023 | 0.00149 ± 0.00055 | 0.000305 ± 8e-05
A12U A33U U47G U49G U55G C68U | < 1e-05 |  |  |  | 
C11U A14U G43U U54A G63A | < 1e-05 |  |  | < 1e-05 | 
